For series [1] the following is noted: mouse, in vivo. From the text: Initial distribution studies used male and female CD-1 mice (8–10 weeks old) purchased from Charles River Laboratories (Seattle, WA). Follow-up studies performed in male and female hemizygous APP/PS1 mice and WT littermates on a C57BL/6J background (Cat 034832-JAX) were purchased from the Mutant Mouse Resource & Research Centers (MMRRC-NIH) at approximately 2 months of age.
IRA administration followed the IN protocol outlined in Rhea et al.. Mice were anesthetized with 40% urethane intraperitoneally. […] Delicate delivery with negligible force was necessary to prevent injuring the turbinates or penetrating the cribriform plate. Tips were also examined for the presence of blood to ensure no cribriform plate rupture took place. Mice remained in the supine state for a duration of at least 30 s before being placed onto the left side.
Collection of blood occurred from the right carotid artery, and the whole brain and olfactory bulbs (Olf) were removed at 5, 15, 30, and 60 min time points after IN administration. […] Radioactivity levels were calculated for the whole brain by combining the radioactivity of each brain region and dividing by the total weights. The same was done for the neocortex (Crtx) by combining radioactivity and weights for the FC, PC, and OC. […] A 50 µl aliquot of the serum was then collected for measurement of radioactivity. Radioactivity amounts for each individual brain region, olfactory bulb, and serum were measured in a Wizard2 Automatic Gamma Counter (PerkinElmer, Waltham, MA) for 30 min. ^14C-DA5-CH samples were solubilized with Solvable (Sigma), transferred to scintillation vials containing Ecoscint (National Diagnostics) and ^14C was measured in a beta counter (TriCarb 3110TR, Perkin-Elmer). Radioactivity for ^125I was measured by counts per minute (cpm) while ^14C was measured by disintegrations per minute (dpm). […]
Injected dose percentages per ml of serum (%Inj/ml) were calculated by: […]
where Inj is dose of cpm administered and cpm/ml is the amount of radioactivity in one ml of serum. […]

Series [2] is described as follows: Stability of IRA following IN delivery (TCA acid precipitation of brain, olfactory bulb, serum) in CD-1 mice. The settings on record: mouse, in vivo. The procedure:
Blood was centrifuged at 3200 xg for 10 min. Serum (50 µl) was combined with 250 µl of BSA/LR, then combined with 300 µl of 30% TCA. Tissues were homogenized in 0.6 ml of 1% BSA/LR solution using a bead beater for 30 s at 4800 rpm twice on ice. […] Equal parts supernatant (300 µl) was mixed with an equal volume of 30% TCA. Serum and brain acid precipitated samples were centrifuged at 5400 xg for 10 min. The supernatant (S) was transferred to a new tube, leaving behind the pellet (P). The final S and P fractions for serum, olfactory bulb, and whole brain were counted separately, and the percentage of radioactivity was calculated using.
%Precip = 100 x (P)/(S + P) as described.
All biological samples were corrected for processing degradation by dividing their values by this processing control (PCon) value and multiplying by 100.

For series [3] the following is noted: mouse, in vivo, cited from earlier work. From the text: Using ^125I labelled IRAs, we tested the ability of intravenously administered IRAs to cross the blood-brain barrier (BBB) in mice. […] The BBB is a functional interface between blood and brain that allows for regulated entry of circulating substrates.
For series [4] the following is noted: in vivo; cited from earlier work. As for the experimental part:
IRAs are forms of these hormones modified to prolong their otherwise very short half-lives in plasma (less than 2 min).

For `CC[C@H](C)[C@H](NC(=O)[C@H](Cc1ccccc1)NC(=O)[C@H](CCC(=O)O)NC(=O)[C@H](CCCCNC(=O)COCCOCCNC(=O)COCCOCCNC(=O)CC[C@H](NC(=O)CCCCCCCCCCCCCCCCC(=O)O)C(=O)O)NC(=O)[C@H](C)NC(=O)[C@H](C)NC(=O)[C@H](CCC(N)=O)NC(=O)CNC(=O)[C@H](CCC(=O)O)NC(=O)[C@H](CC(C)C)NC(=O)[C@H](Cc1ccc(O)cc1)NC(=O)[C@H](CO)NC(=O)[C@H](CO)NC(=O)[C@@H](NC(=O)[C@H](CC(=O)O)NC(=O)[C@H](CO)NC(=O)[C@@H](NC(=O)[C@H](Cc1ccccc1)NC(=O)[C@@H](NC(=O)CNC(=O)[C@H](CCC(=O)O)NC(=O)C(C)(C)NC(=O)[C@@H](N)Cc1cnc[nH]1)[C@@H](C)O)[C@@H](C)O)C(C)C)C(=O)N[C@@H](C)C(=O)N[C@@H](Cc1c[nH]c2ccccc12)C(=O)N[C@@H](CC(C)C)C(=O)N[C@H](C(=O)N[C@@H](CCCNC(=N)N)C(=O)NCC(=O)N[C@@H](CCCNC(=N)N)C(=O)NCC(=O)O)C(C)C` [Semaglutide], in series [1], the “Whole brain maximal uptake relative to the other IRAs” value is “three-fold less uptake”. Besides, in series [2], the “Acid precipitation (AP%) olfactory bulb” value turned out to be 100.9 ± 0.5%, the “Acid precipitation (AP%) serum” value is listed as 86.9 ± 1.1% and the “Acid precipitation (AP%) whole brain” value was 74.7 ± 17.7%. Besides, in series [3], the “Rate of crossing the BBB after IV administration” value (“Rate of crossing the BBB” below) was “undetectable within an hour”, the “Rate of whole brain uptake an hour after IV administration” value was “undetectable” and the “Time for brain detection after systemic administration” value is reported as “took hours for brain detection”.
In the case of “albiglutide: incretin receptor agonist, cited IV BBB data”, in series [3], the “Rate of crossing the BBB” value is listed as “quickly”.
For “dulaglutide (BAF): dulaglutide bioactive fragment, single IRA, 3315 Da, purchased from GLPBIO (catalog # GC31520); 125I-labelled”, in series [1], the “Serum level following IN delivery” value was “highest levels” and the “Sex difference in maximum uptake in hypothalamus” value is “females having less uptake”. For the same compound, in series [3], the “Rate of crossing the BBB” value is reported as “quickly” and the “Rate of whole brain uptake an hour after IV administration” value is on record as “relatively high”.
Take glucagon-like peptide-1 [GLP-1]: the Half-life in plasma result in series [4] was “less than 2 min”.
“liraglutide: incretin receptor agonist, cited BBB data”: the “Time for brain detection after systemic administration” value in series [3] is recorded as “took hours for brain detection”.
Take “lixisenatide: incretin receptor agonist, cited IV BBB data”: the “Rate of crossing the BBB” value in series [3] is reported as “slow rates”.
Take “tirzepatide: incretin receptor agonist, cited IV BBB data”: the “Rate of crossing the BBB” value in series [3] was “undetectable within an hour”.

The values above are taken from PMC11293113, “Comparing regional brain uptake of incretin receptor agonists after intranasal delivery in CD-1 mice and the APP/PS1 mouse model of Alzheimer’s disease” (Alzheimer's Research & Therapy, 2024).
